Experimental data as given in article PMC13044992.

Assays:
[1] = target: S100i1 from Danio rerio (wild type) (Danio rerio) (UniProt Q6XG62); assay: crystal structure; sitting-drop vapor diffusion at 291 K, 10 mg/mL protein; apo S100i1 (0.2 M Li sulfate, Tris-HCl pH 8.5, 25% PEG 4000), Na+-S100i1 (0.2 M Na acetate, Tris-HCl pH 9.5, 35% PEG 4000), Mg2+-S100i2 (0.2 M MgCl2, Tris-HCl pH 8.5, 30% PEG 4000)
[2] = target: S100i1 from Danio rerio (wild type) (Danio rerio) (UniProt Q6XG62); assay: SEC; 24 mL Superdex 75 Increase 10/300 GL, 20 mM Tris-HCl pH 7.5, 100 mM NaCl; self-association (homodimer)
[3] = target: S100i2 from Danio rerio (wild type) (Danio rerio) (UniProt A3FKT8); assay: crystal structure; sitting-drop vapor diffusion at 291 K, 10 mg/mL protein; apo S100i1 (0.2 M Li sulfate, Tris-HCl pH 8.5, 25% PEG 4000), Na+-S100i1 (0.2 M Na acetate, Tris-HCl pH 9.5, 35% PEG 4000), Mg2+-S100i2 (0.2 M MgCl2, Tris-HCl pH 8.5, 30% PEG 4000)
[4] = target: S100i2 from Danio rerio (wild type) (Danio rerio) (UniProt A3FKT8); assay: SEC; 24 mL Superdex 75 Increase 10/300 GL, 20 mM Tris-HCl pH 7.5, 100 mM NaCl; self-association (homodimer)

| stoichiometry N [1] | stoichiometry N [2] | stoichiometry N [3] | stoichiometry N [4] | Substance |
| --- | --- | --- | --- | --- |
| 2 | 2 | – | – | S100i1 from Danio rerio (wild type) (from UniProt Q6XG62 1-95) (natural protein) |
| – | – | 2 | 2 | S100i2 from Danio rerio (wild type) (from UniProt A3FKT8 1-97) (natural protein) |
